Source: paper PMC8916002 (Proceedings of the National Academy of Sciences of the …, 2022)
Blank lines part the entries; values can stand above or below the molecule they belong to.

How the values were obtained:
[1] = system: JPH1; assay: Cocrystallization of JPH1 with phospholipids; assay type: binding, human; details: high ionic strength
[2] = biological target: T1, MBP-tagged JPH2 (1 to 161, 275 to 437) (human, UniProt Q9BR39-1 1-161; Q9BR39-1 275-437); assay: ITC
T1 chain (looked up): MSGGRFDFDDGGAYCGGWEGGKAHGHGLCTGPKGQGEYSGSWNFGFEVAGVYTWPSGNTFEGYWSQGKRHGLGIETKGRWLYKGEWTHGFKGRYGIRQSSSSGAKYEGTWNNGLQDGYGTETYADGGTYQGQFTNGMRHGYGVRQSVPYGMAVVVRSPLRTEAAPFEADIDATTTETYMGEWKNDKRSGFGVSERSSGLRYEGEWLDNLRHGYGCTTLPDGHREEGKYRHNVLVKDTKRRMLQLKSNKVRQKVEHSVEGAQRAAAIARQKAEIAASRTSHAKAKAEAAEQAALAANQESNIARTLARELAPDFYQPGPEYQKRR

[3] = biological target: T2, JPH2 (1 to 161, 275 to 437) (human, UniProt Q9BR39-1 1-161; Q9BR39-1 275-437); assay: ITC
T2 chain (looked up): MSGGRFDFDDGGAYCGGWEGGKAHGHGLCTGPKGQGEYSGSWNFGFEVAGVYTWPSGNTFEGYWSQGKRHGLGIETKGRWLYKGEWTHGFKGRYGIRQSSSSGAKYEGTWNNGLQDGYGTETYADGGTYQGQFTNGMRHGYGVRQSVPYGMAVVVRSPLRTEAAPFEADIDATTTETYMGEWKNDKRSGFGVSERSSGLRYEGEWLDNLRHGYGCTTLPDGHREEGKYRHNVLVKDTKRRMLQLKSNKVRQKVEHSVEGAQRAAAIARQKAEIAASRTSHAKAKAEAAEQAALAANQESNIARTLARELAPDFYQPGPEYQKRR

[4] = biological target: T3, JPH1 (1 to 175, 265 to 442) (human, UniProt Q9HDC5 1-175; Q9HDC5 265-442); assay: ITC
T3 chain (looked up): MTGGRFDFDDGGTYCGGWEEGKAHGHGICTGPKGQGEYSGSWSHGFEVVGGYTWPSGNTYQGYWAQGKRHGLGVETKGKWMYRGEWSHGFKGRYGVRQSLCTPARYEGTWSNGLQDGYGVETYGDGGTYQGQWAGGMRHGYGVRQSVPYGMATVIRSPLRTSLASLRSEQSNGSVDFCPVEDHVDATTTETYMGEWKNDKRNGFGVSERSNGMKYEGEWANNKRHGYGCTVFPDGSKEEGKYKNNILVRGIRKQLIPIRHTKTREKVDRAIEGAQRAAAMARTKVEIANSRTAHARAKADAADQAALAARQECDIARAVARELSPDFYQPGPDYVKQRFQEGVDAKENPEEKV

Molecule: CCCCCC(=O)OC[C@H](COP(=O)(O)OC[C@H](N)C(=O)O)OC(=O)CCCCC [6:0 PS]
ligand electron density in JPH1 crystals ([1]; 2 mM 6:0 PS, diffraction data to 1.9 Å): no significant difference density could be identified
ligand electron density in JPH1 crystals ([1]; 2 mM 6:0 PS, diffraction data to 1.9 Å, listed as PS): could not observe any density for a bound ligand

Molecule: CCCCCCCC(=O)OC[C@H](COP(=O)(O)O[C@@H]1[C@H](O)[C@H](O)[C@@H](OP(=O)(O)O)[C@H](OP(=O)(O)O)[C@H]1O)OC(=O)CCCCCCC [8:0 PI(4,5)P2]
ligand electron density in JPH1 crystals ([1]; 500 μM 8:0 PI(4,5)P2, diffraction data to 2.0 Å): no significant difference density could be identified

Kd [2]: 1800 nM
stoichiometry N [3]: 1
Kd [4]: 1000 to 2000 nM
stoichiometry N [4]: 1
Molecule: EERIFRRTGGLFGQVD (peptide, UniProt P07293 1594-1609, looked up) [CaV1.1 peptide (rabbit CaV1.1 residues 1594 to 1609)]
